Experimental data from publication PMC4509936 (RNA, 2015).

T1: BMV 1a protein, carboxy-terminal flag-tagged version (Brome mosaic virus, UniProt P03588 1-961)
T1 sequence (looked up): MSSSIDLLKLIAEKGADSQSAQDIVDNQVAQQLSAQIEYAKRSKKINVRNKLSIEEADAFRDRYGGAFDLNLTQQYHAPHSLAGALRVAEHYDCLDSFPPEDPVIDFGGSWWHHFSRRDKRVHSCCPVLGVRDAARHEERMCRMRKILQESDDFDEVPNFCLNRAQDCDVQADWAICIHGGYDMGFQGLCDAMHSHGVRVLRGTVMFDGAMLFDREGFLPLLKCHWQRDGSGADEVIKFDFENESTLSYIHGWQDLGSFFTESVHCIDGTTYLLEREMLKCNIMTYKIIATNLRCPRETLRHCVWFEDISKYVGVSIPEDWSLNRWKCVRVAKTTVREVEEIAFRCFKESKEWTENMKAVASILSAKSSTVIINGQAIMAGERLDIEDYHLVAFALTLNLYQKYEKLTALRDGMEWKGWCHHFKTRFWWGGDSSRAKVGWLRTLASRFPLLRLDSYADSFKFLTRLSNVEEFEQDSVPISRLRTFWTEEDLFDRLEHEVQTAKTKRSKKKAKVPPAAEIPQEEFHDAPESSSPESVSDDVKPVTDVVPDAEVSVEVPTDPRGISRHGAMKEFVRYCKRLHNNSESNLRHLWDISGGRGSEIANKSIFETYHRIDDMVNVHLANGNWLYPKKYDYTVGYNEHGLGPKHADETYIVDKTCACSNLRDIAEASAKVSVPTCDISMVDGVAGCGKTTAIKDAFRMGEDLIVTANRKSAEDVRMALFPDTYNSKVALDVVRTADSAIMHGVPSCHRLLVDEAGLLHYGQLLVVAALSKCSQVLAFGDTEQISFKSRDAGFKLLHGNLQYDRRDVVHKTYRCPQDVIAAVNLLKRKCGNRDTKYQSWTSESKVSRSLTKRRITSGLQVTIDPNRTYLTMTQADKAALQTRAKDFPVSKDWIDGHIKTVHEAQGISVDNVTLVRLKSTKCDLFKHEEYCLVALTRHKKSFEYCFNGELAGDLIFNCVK

B1: Pat1 (natural protein, S. cerevisiae (endogenous in YPH500), UniProt P25644 1-796, looked up)
chain: MSFFGLENSGNARDGPLDFEESYKGYGEHELEENDYLNDETFGDNVQVGTDFDFGNPHSSGSSGNAIGGNGVGATARSYVAATAEGISGPRTDGTAAAGPLDLKPMESLWSTAPPPAMAPSPQSTMAPAPAPQQMAPLQPILSMQDLERQQRQMQQQFMNFHAMGHPQGLPQGPPQQQFPMQPASGQPGPSQFAPPPPPPGVNVNMNQMPMGPVQVPVQASPSPIGMSNTPSPGPVVGATKMPLQSGRRSKRDLSPEEQRRLQIRHAKVEKILKYSGLMTPRDKDFITRYQLSQIVTEDPYNEDFYFQVYKIIQRGGITSESNKGLIARAYLEHSGHRLGGRYKRTDIALQRMQSQVEKAVTVAKERPSKLKDQQAAAGNSSQDNKQANTVLGKISSTLNSKNPRRQLQIPRQQPSDPDALKDVTDSLTNVDLASSGSSSTGSSAAAVASKQRRRSSYAFNNGNGATNLNKSGGKKFILELIETVYEEILDLEANLRNGQQTDSTAMWEALHIDDSSYDVNPFISMLSFDKGIKIMPRIFNFLDKQQKLKILQKIFNELSHLQIIILSSYKTTPKPTLTQLKKVDLFQMIILKIIVSFLSNNSNFIEIMGLLLQLIRNNNVSFLTTSKIGLNLITILISRAALIKQDSSRSNILSSPEISTWNEIYDKLFTSLESKIQLIFPPREYNDHIMRLQNDKFMDEAYIWQFLASLALSGKLNHQRIIIDEVRDEIFATINEAETLQKKEKELSVLPQRSQELDTELKSIIYNKEKLYQDLNLFLNVMGLVYRDGEISELK
B2: Lsm1 (natural protein, S. cerevisiae (endogenous in YPH500), UniProt P47017 1-172, looked up)
chain: MSANSKDRNQSNQDAKRQQQNFPKKISEGEADLYLDQYNFTTTAAIVSSVDRKIFVLLRDGRMLFGVLRTFDQYANLILQDCVERIYFSEENKYAEEDRGIFMIRGENVVMLGEVDIDKEDQPLEAMERIPFKEAWLTKQKNDEKRFKEETHKGKKMARHGIVYDFHKSDMY

How the values were obtained:
[1] = biological target: T1, BMV 1a protein, carboxy-terminal …; experiment: co-IP
[2] = biological target: T1, BMV 1a protein, carboxy-terminal …; experiment: co-IP; remark: listed apart in the source

Row | Binder | fold enrichment compared with “Flag only” controls [1] [fold] | fold enrichment compared with “Flag only” control [2] [fold]
1 | B1 | 25 | 4.5
2 | B2 | 7 | 2
